Test results: US20150005230A1, “CYCLODEXTRIN-BASED POLYMERS FOR THERAPEUTIC DELIVERY” (priority 2012, published 2015)

Target: human albumin (Homo sapiens, UniProt P02768)
Assay: Release of CPT in reconstituted human albumin (PBS solution)
Type: in vitro ADME
Conditions: in the presence of albumin
Method: Samples were stored at −80° C. until the analysis.

human albumin, sequence (P02768 25-609): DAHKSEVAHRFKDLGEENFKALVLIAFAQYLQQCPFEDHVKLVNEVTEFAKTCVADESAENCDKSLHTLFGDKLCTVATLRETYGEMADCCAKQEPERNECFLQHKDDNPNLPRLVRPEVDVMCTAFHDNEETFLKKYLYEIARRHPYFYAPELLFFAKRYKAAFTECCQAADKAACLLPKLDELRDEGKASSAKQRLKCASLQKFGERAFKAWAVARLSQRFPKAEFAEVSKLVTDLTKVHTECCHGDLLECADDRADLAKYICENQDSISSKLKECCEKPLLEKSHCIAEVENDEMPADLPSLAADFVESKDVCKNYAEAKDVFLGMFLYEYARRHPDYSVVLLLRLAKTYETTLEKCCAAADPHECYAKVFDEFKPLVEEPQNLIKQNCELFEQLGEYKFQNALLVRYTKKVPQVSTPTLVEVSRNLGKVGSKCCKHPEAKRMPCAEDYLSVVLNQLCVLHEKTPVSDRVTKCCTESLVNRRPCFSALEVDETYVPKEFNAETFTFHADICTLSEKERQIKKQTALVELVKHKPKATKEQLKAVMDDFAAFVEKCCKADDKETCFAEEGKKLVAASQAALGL

Substance	CPT release rate compared with PBS
Poly(CDDCys-PA-PEG)-Gly-CPT [HG6]	on the same order of magnitude as in PBS
Poly(CDDCys-PA-PEG)-GlyGlyGly-CPT [HGGG6]	on the same order of magnitude as in PBS
